Laboratory results: IntAct's records for PubMed 16098514

B1: GTPase RhebL1 (Homo sapiens), Q8TAI7 (parent)
chain: MPLVRYRKVVILGYRCVGKTSLAHQFVEGEFSEGYDPTVENTYSKIVTLGKDEFHLHLVDTAGQDEYSILPYSFIIGVHGYVLVYSVTSLHSFQVIESLYQKLHEGHGKTRVPVVLVGNKADLSPEREVQAVEGKKLAESWGATFMESSARENQLTQGIFTKVIQEIARVENSYGQERRCHLM

Variants of: B1
Conditions: with mtor_human MTOR

Row | effect of a mutation on the interaction | Variant
1 | disrupting interaction | N41A
